The supplement of paper PMC9170038

Test system: K4 kissing-loop RNA reporter
Test: apparent KD of K4 kissing-loop reporter; higher = weaker reporter binding
Conditions: Eterna round: R107
Procedure: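 RNA-MaP round R107: designed RNA switches with theophylline, tryptophan, arginine or FMN aptamers are transcribed on-chip within common flanks. They are titrated with a labelled K4 kissing-loop RNA reporter in RNA-MaP buffer (100 mM Tris pH 7.5, 80 mM KCl, 4 mM MgCl2), without ligand or with the indicated ligand. Median apparent KD per design.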

[1] = input ligand: theophylline 20 uM
[2] = input ligand: tryptophan 2.4 mM
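Note: bound reporter read as fluorescence of individual clusters on recovered sequencing chips by microscopy, with normalized cluster intensities fitted with a binding model.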

AUUAUAUAGGCGGCCGCCACUAGUGAUGUUAGUGAUGUCAUAAUAUAAUGAUAAAUUAUAUUGCGUAGGACCGGGCCUAAAUAUU [#15 K4 Tryptophan B Exclusion]
apparent KD of K4 kissing-loop reporter (input ligand: FMN 200 uM): 108 nM
apparent KD of K4 kissing-loop reporter (input ligand: arginine 13.2 mM): 62.3 nM
apparent KD of K4 kissing-loop reporter (input ligand: none): 86.3 nM
apparent KD of K4 kissing-loop reporter [1]: 100 nM
apparent KD of K4 kissing-loop reporter [2]: 111 nM

UUUUAAAUGUCUGAUACCAGAGAAAAUAUAUGUAGUGAUGUUAUAUACAAAAUAAAUAAGCUCCCUUGGCAGCAGUAUUAAUUUU [AstrosExc-TheB#6]
apparent KD of K4 kissing-loop reporter (input ligand: FMN 200 uM): 679 nM
apparent KD of K4 kissing-loop reporter (input ligand: arginine 13.2 mM): 632 nM
apparent KD of K4 kissing-loop reporter (input ligand: none): 863 nM
apparent KD of K4 kissing-loop reporter [1]: 725 nM
apparent KD of K4 kissing-loop reporter [2]: 529 nM

UUAUCUAUAUUCGAUACCAGUACCCUUUGUGUUAAUCCUUUUAUCAGUGAUGUUGAUGUGUACCCUUGGCAGCGGGUAUGGGUUU [KL-XTheo-B15]
apparent KD of K4 kissing-loop reporter (input ligand: FMN 200 uM): 420 nM
apparent KD of K4 kissing-loop reporter (input ligand: arginine 13.2 mM): 388 nM
apparent KD of K4 kissing-loop reporter (input ligand: none): 437 nM
apparent KD of K4 kissing-loop reporter [1]: 640 nM
apparent KD of K4 kissing-loop reporter [2]: 349 nM

GUAUCGCUAGGAGGAUAUUUCAAUUCGUCAAUAAAUGGUGAUACGGAGUGAUGUUCCGAUUUACGGAAAGAAGGCCUAGUGAUAC [FMN B 7]
apparent KD of K4 kissing-loop reporter (input ligand: FMN 200 uM): 173 nM
apparent KD of K4 kissing-loop reporter (input ligand: arginine 13.2 mM): 265 nM
apparent KD of K4 kissing-loop reporter (input ligand: none): 298 nM
apparent KD of K4 kissing-loop reporter [1]: 287 nM
apparent KD of K4 kissing-loop reporter [2]: 285 nM

CGCAGUGAUGUUGUGAUUAACUACAGGGAAGGAGCGUGCUAGAGCACAGGUAGGUCGCCCAGUGGCCGAGUGAUGUUCGGCGGGU [Same State Arginine A GF 27]
apparent KD of K4 kissing-loop reporter (input ligand: FMN 200 uM): 237 nM
apparent KD of K4 kissing-loop reporter (input ligand: arginine 13.2 mM): 189 nM
apparent KD of K4 kissing-loop reporter (input ligand: none): 227 nM
apparent KD of K4 kissing-loop reporter [1]: 250 nM
apparent KD of K4 kissing-loop reporter [2]: 188 nM

GCAGGCGUAAAAGGAUAUCAGGCUCUCUAGACACGAGUGAUGUUUGUGUAGGUAACGUAAUAGGCAUGAGAAGGUUUCACUUAAA [theeternabot_sameState_KL_FMN_B_49]
apparent KD of K4 kissing-loop reporter (input ligand: FMN 200 uM): 608 nM
apparent KD of K4 kissing-loop reporter (input ligand: arginine 13.2 mM): 430 nM
apparent KD of K4 kissing-loop reporter (input ligand: none): 547 nM
apparent KD of K4 kissing-loop reporter [1]: 524 nM
apparent KD of K4 kissing-loop reporter [2]: 416 nM

CUCGUGGGUUUGAGAGGGCUUGUGGGAAGUGAGGAUAUUUAGGGAGAAAGAAGGCACUAUAAAAUAUAGUGAUGUUAUAUAAGGG [SSFMNA.M]
apparent KD of K4 kissing-loop reporter (input ligand: FMN 200 uM): 494 nM
apparent KD of K4 kissing-loop reporter (input ligand: arginine 13.2 mM): 138 nM
apparent KD of K4 kissing-loop reporter (input ligand: none): 188 nM
apparent KD of K4 kissing-loop reporter [1]: 751 nM
apparent KD of K4 kissing-loop reporter [2]: 347 nM

AAUUCAGUGAUGUUGGAAGGCAGGCGGGAUACCAGCGGAGAAUAACGCCCUUGGCAGCCCAAAUAUCCCAAAUAGAUAAUAGUUC [Same State - Theophylline A (Freestyle 2)]
apparent KD of K4 kissing-loop reporter (input ligand: FMN 200 uM): 474 nM
apparent KD of K4 kissing-loop reporter (input ligand: arginine 13.2 mM): 353 nM
apparent KD of K4 kissing-loop reporter (input ligand: none): 481 nM
apparent KD of K4 kissing-loop reporter [1]: 475 nM
apparent KD of K4 kissing-loop reporter [2]: 450 nM

GCGUGGCAGGCGGCCGCCACUCGGACGAGUCACAGUGAUGUUGUGGUUUGCCAGUCGUCUUCAUCGAGGACCGGGUUUGUUGCGC [Exclusion Tryptophan B GF 18]
apparent KD of K4 kissing-loop reporter (input ligand: FMN 200 uM): 206 nM
apparent KD of K4 kissing-loop reporter (input ligand: arginine 13.2 mM): 169 nM
apparent KD of K4 kissing-loop reporter (input ligand: none): 212 nM
apparent KD of K4 kissing-loop reporter [1]: 159 nM
apparent KD of K4 kissing-loop reporter [2]: 171 nM

UGUCAUUGGUCGGCCGCCACUUCAUGUAGAGUGAUGUUUUGUAGGACGGAUCGAAAGAUCUGUCGGAGGACCGGGACCGAUGACU [FiskerMod 16 - Jieux - Same State - Tryptophan B]
apparent KD of K4 kissing-loop reporter (input ligand: FMN 200 uM): 121 nM
apparent KD of K4 kissing-loop reporter (input ligand: arginine 13.2 mM): 119 nM
apparent KD of K4 kissing-loop reporter (input ligand: none): 134 nM
apparent KD of K4 kissing-loop reporter [1]: 266 nM
apparent KD of K4 kissing-loop reporter [2]: 1690 nM

AAAUUUUCAAGUGAUACCAGACAUUUUUAUUUCUUUAUUUAUGCUAAGUGAUGUUUAGCAGUCCCUUGGCAGCACUAUUUAAUUA [JR_Nu_SSTheophyB_Sub030]
apparent KD of K4 kissing-loop reporter (input ligand: FMN 200 uM): 127 nM
apparent KD of K4 kissing-loop reporter (input ligand: arginine 13.2 mM): 174 nM
apparent KD of K4 kissing-loop reporter (input ligand: none): 141 nM
apparent KD of K4 kissing-loop reporter [1]: 231 nM
apparent KD of K4 kissing-loop reporter [2]: 144 nM

AGUCCACUCUAAAGAGUGGACCUAAGGGAUACCAGUGAUGUUGGUCACCCUUGGCAGCCCGCUGUCAUCGAUAAAGAUGGCAGGA
apparent KD of K4 kissing-loop reporter (input ligand: FMN 200 uM): 133 nM
apparent KD of K4 kissing-loop reporter (input ligand: arginine 13.2 mM): 113 nM
apparent KD of K4 kissing-loop reporter (input ligand: none): 129 nM
apparent KD of K4 kissing-loop reporter [1]: 127 nM
apparent KD of K4 kissing-loop reporter [2]: 125 nM

GCCGUACGCAUGGAUACCAGCCGACAUGAUAUUUAGCUGGUGUCGUAGUGAUGUUACGAAGGCCCUUGGCAGCCAUGCGUACGGC
apparent KD of K4 kissing-loop reporter (input ligand: FMN 200 uM): 83.7 nM
apparent KD of K4 kissing-loop reporter (input ligand: arginine 13.2 mM): 72.7 nM
apparent KD of K4 kissing-loop reporter (input ligand: none): 78.2 nM
apparent KD of K4 kissing-loop reporter [1]: 79.1 nM
apparent KD of K4 kissing-loop reporter [2]: 78.7 nM

ACGUCACGUAUACUGGUGGUUUCGAUCGAUACCAGUAGCGAGAGUUACCCUUGGCAGCGACAUGAGUGAUGUUUAUGUAUGAUGA [#13 K4 Theophylline A Exclusion]
apparent KD of K4 kissing-loop reporter (input ligand: FMN 200 uM): 639 nM
apparent KD of K4 kissing-loop reporter (input ligand: arginine 13.2 mM): 551 nM
apparent KD of K4 kissing-loop reporter (input ligand: none): 593 nM
apparent KD of K4 kissing-loop reporter [1]: 560 nM
apparent KD of K4 kissing-loop reporter [2]: 492 nM

UCGCGUCUGUGAGGAUAUCAGAACAGAGUGAUGUUCUGUCAACGCCCAGUGAUGUUGGAUGCGAUCUGAGAAGGCACUGGGCGCA [Same State FMN B GF 9]
apparent KD of K4 kissing-loop reporter (input ligand: FMN 200 uM): 1060 nM
apparent KD of K4 kissing-loop reporter (input ligand: arginine 13.2 mM): 865 nM
apparent KD of K4 kissing-loop reporter (input ligand: none): 1320 nM
apparent KD of K4 kissing-loop reporter [1]: 1700 nM
apparent KD of K4 kissing-loop reporter [2]: 1160 nM

AAAUCUUUCAGAAGGAGCGUGGAUUAUUCUUAUAUAUUUAUUACGAGUGAUGUUCGUAAUUCACAGGUAGGUCGCUGAUCAAUAA [JR_ExcArginiB_Sub006]
apparent KD of K4 kissing-loop reporter (input ligand: FMN 200 uM): 87.5 nM
apparent KD of K4 kissing-loop reporter (input ligand: arginine 13.2 mM): 105 nM
apparent KD of K4 kissing-loop reporter (input ligand: none): 91.1 nM
apparent KD of K4 kissing-loop reporter [1]: 109 nM
apparent KD of K4 kissing-loop reporter [2]: 89.8 nM

UGACUGGACUGAAGGAGCGCUGAAGGAGCGUAAGCAGUGAUGUUGCUUACAGGUAGGUCGCAGCAGGUAGGUCGCAGUCUAGUCU
apparent KD of K4 kissing-loop reporter (input ligand: FMN 200 uM): 93.5 nM
apparent KD of K4 kissing-loop reporter (input ligand: arginine 13.2 mM): 78.7 nM
apparent KD of K4 kissing-loop reporter (input ligand: none): 93.4 nM
apparent KD of K4 kissing-loop reporter [1]: 90 nM
apparent KD of K4 kissing-loop reporter [2]: 99.6 nM
